# Measurements reported in paper PMC5468478 (FEBS letters, 2017).
# B1: Mod5 (enzyme, S. cerevisiae, UniProt P07884 1-428, looked up)
# chain: MLKGPLKGCLNMSKKVIVIAGTTGVGKSQLSIQLAQKFNGEVINSDSMQVYKDIPIITNKHPLQEREGIPHHVMNHVDWSEEYYSHRFETECMNAIEDIHRRGKIPIVVGGTHYYLQTLFNKRVDTKSSERKLTRKQLDILESTDPDVIYNTLVKCDPDIATKYHPNDYRRVQRMLEIYYKTGKKPSETFNEQKITLKFDTLFLWLYSKPEPLFQRLDDRVDDMLERGALQEIKQLYEYYSQNKFTPEQCENGVWQVIGFKEFLPWLTGKTDDNTVKLEDCIERMKTRTRQYAKRQVKWIKKMLIPDIKGDIYLLDATDLSQWDTNASQRAIAISNDFISNRPIKQERAPKALEELLSKGETTMKKLDDWTHYTCNVCRNADGKNVVAIGEKYWKIHLGSRRHKSNLKRNTRQADFEKWKINKKETVE
# Molecular target: the molecule itself
# Experiment: negative-stain electron microscopy
protein,measurement,value
B1,binding result,binds
